This note sets out measurements from PMC9884143 (The Journal of Biological Chemistry, 2023).

Where a chain is given by its changes, count along the chain named.

Assay [1] concerns the target T1, SARS-CoV-2 Spike receptor-binding domain (RBD), original strain (SARS-CoV-2, original strain, UniProt P0DTC2).
Assay [2] addresses T1, SARS-CoV-2 Spike receptor-binding …. Put plainly: SPR. The conditions noted are these: both partners purified.

B1: CoV2-YD-12 (VHH)
VHH: QVQLVESGGGLVQAGGSLRLSCAASGSTFSRLNILWWRQAAGKPREWVATSTDGGTRNYAAAVKGRFTISRDNAKNTVYLQMNSLKPEDTAVYYCYTPDYWGQGTQVTVS
With B1, in assay [1], binding was characterised by a dissociation constant (Kd) of 0.145 nM.

B2: Rescue-1 (VHH)
VHH: DVQLVESGGGLVQAGDSLRLSCTASGRTFTTNAMGWFRQAPGKEREFVAAITWSYGTTYYSDPVEGRFTISRDNAKNTVYLQMNSLKPEDTAVYYCFYERLAWDTSTYWGQGTQVTVS
As to B2, the affinity in assay [1], expressed as Kd, was 50.9 nM.

B3: Rescue-3 (VHH)
VHH: B2 VHH with T52S, S54N, Y55S, E65K
B3: the dissociation constant Kd (in general, the concentration at which binding is half-saturated) in assay [1] was found to be 24.9 nM.

B4: Rescue-2 (VHH)
VHH: B2 VHH with T52S, S54N, G56D
For B4, in assay [1], the affinity, expressed as Kd, was 26.8 nM.

B5: CoV2-YD-35 (VHH)
VHH: DVQLVESGGGLVQAGDSLRLSCTASGRTFTTNAMGWFRQAPGKEREFVAAISWSYGTTYYSDPVEGRFTISRSNAKNTVYLQMNSLKPDDTAVYYCTLRSRFNAAAWTTEAAFDYWGQGTQVTVS
In assay [1], B5 came in with a Kd of 0.14 nM.

B6: CoV2-YD-36 (VHH)
VHH: B5 VHH with D1Q, S52T
For B6, the Kd in assay [1] is 0.154 nM.

B7: CoV2-YD-38 (VHH)
VHH: B5 VHH with T23A, S54N, Y55S, E65K, S73D, D89G, A105Y, A111N
For B7, the affinity in assay [1], expressed as Kd, was 0.561 nM.

B8: CoV2-YD-37 (VHH)
VHH: B5 VHH with S54N, G56D
In the case of B8, in assay [1], binding was put at a Kd of 0.411 nM.

B9: CoV2-YD-10 (VHH)
VHH: QVQLVESGGDLVQPGGSLRLSCAASGFTFSTYDMGWFRQGPGKEREFVAQIAPNGITTYYADSVKGRFTISRDNAKRMVFLQMNSLKPEDTAVYFCAVDLAPWGSLKLRTNPARGQGTQVTVS
As for B9, the binding result in assay [2] is given as “binds”.

B10: CoV2-YD-13 (VHH)
VHH: QVQLVESGGGLVQAGGSLRLSCAASGFTFDDYAIGWFRQAPGKEREGVSCISSSGGFTNYADSVKGRFTISSDNAKNTVYLQMNSLKPEDTAVYYCAVVVNGYGLDEWAYDYWGQGTQVTVS
With B10, binding in assay [1] was characterised by a dissociation constant (Kd) of 2.43 nM.

B11: CoV2-YD-14 (VHH)
VHH: QVQLVESGGGLVQAGGSLRLSCSASGNTFSTYSLSWYRQAPGKQREFVAAISSGGSTSYANSVKGRFSISRDNAKKTMYLQMNSLKPEDTAVYYCYVVTTLMDYWGQGTQVTVS
Regarding B11, in assay [1], the dissociation constant (Kd) was 0.152 nM.

B12: CoV2-YD-5 (VHH)
VHH: QVQLVESGGGLVQAGGSLRLSCVASGTTISTYNLLWFRQAPGQQREWVASISSGGDTSYAGSVKGRFTISRDNTENTMYLQMNSLKPEDTAVYYCHGANAAHGMDYWGKGTQVTVS
On to B12, for which, in assay [1], binding was put at a Kd of 0.114 nM.

B13: CoV2-YD-11 (VHH)
VHH: QVQLVESGGGLVQAGGSLRLSCVVSGTTFSRYDMGWYRQAPGKARETVATISRSGTTNYAYFVKGRFTITRDNAKNTVYLQMNSLKPEDTAVYYCYIFGLDYWGQGTQVTVS
In assay [1], B13 came in with a Kd of 0.179 nM.
